Reference: patent publication US20160257732A1 (published 2016)
Where a chain is given by its changes, count along the chain named. Several values for one entry are separate records, joined by “and”; a condition that tells them apart may be missing. Identical values can stand only once. Like-named read-outs stand apart in the source and are kept apart here.

Tests used:
Experiment in all cases: cell-based or functional assay
[1] = biological target: HA of ca A/swine/Missouri/06 (H2N3) (influenza A virus)
[2] = biological target: HA of ca A/Netherlands/219/03 (H7N7) (influenza A virus)
[3] = biological target: HA of ca A/Perth/16/09 (H3N2) (influenza A virus)
[4] = biological target: HA of A/New Jersey/8/76 (H1N1) (influenza A virus)
[5] = biological target: HA of ca A/Beijing/262/95 (H1N1) (influenza A virus)
[6] = biological target: HA of ca A/Panama/2007/99 (H3N2) (influenza A virus)
[7] = biological target: T1, HA of ca A/Brit. Columbia/CN-6/04 (H7N3-LP) (influenza A virus)
[8] = biological target: HA of ca A/Texas/36/91 (H1N1) (influenza A virus)
[9] = biological target: HA of A/Fort Monmouth/1/47 (H1N1) (influenza A virus)
[10] = biological target: HA of ca A/New Caledonia/20/99 (H1N1) (influenza A virus)
[11] = biological target: T2, HA of ca A/chicken/Hong Kong/G9/97 (H9N2) (influenza A virus)
[12] = biological target: HA of A/Wyoming/03/03 (H3N2) (influenza A virus)
[13] = biological target: HA of ca A/Sydney/5/97 (H3N2) (influenza A virus)
[14] = biological target: HA of A/Wisconsin/67/05 (H3N2) (influenza A virus)
[15] = biological target: HA of A/Kawasaki/9/86 (H1N1) (influenza A virus)
[16] = biological target: HA of A/Victoria/3/75 (H3N2) (influenza A virus)
[17] = biological target: HA of ca A/Hong Kong/213/03 (H5N1) (influenza A virus)
[18] = biological target: HA of ca A/teal/Hong Kong/W312/97 (H6N1) (influenza A virus)
[19] = biological target: HA of A/Hong Kong/8/68 (H3N2) (influenza A virus)
[20] = biological target: HA of ca A/Vietnam/1203/04 (H5N1) (influenza A virus)
[21] = biological target: HA of swine-origin A/Minnesota/11/2010 H3N2 virus (influenza A virus)
[22] = biological target: HA of ca A/swine/Missouri/06 (H2N3) (influenza A virus); remark: listed apart in the source
[23] = biological target: HA of ca A/Netherlands/219/03 (H7N7) (influenza A virus); remark: listed apart in the source
[24] = biological target: HA of ca A/Perth/16/09 (H3N2) (influenza A virus); remark: listed apart in the source
[25] = biological target: HA of A/New Jersey/8/76 (H1N1) (influenza A virus); remark: listed apart in the source
[26] = biological target: HA of ca A/Beijing/262/95 (H1N1) (influenza A virus); remark: listed apart in the source
[27] = biological target: HA of ca A/Panama/2007/99 (H3N2) (influenza A virus); remark: listed apart in the source
[28] = biological target: T1, HA of ca A/Brit. Columbia/CN-6/04 …; remark: listed apart in the source
[29] = biological target: HA of ca A/Texas/36/91 (H1N1) (influenza A virus); remark: listed apart in the source
[30] = biological target: HA of A/Fort Monmouth/1/47 (H1N1) (influenza A virus); remark: listed apart in the source
[31] = biological target: HA of ca A/New Caledonia/20/99 (H1N1) (influenza A virus); remark: listed apart in the source
[32] = biological target: T2, HA of ca A/chicken/Hong Kong/G9/97 …; remark: listed apart in the source
[33] = biological target: HA of ca A/Sydney/5/97 (H3N2) (influenza A virus); remark: listed apart in the source
[34] = biological target: HA of A/Wisconsin/67/05 (H3N2) (influenza A virus); remark: listed apart in the source
[35] = biological target: HA of ca A/Japan/57 (H2N2) (influenza A virus)
[36] = biological target: HA of A/Kawasaki/9/86 (H1N1) (influenza A virus); remark: listed apart in the source
[37] = biological target: HA of A/Victoria/3/75 (H3N2) (influenza A virus); remark: listed apart in the source
[38] = biological target: HA of ca A/mallard/Alberta/89/85 (H6N2) (influenza A virus)
[39] = biological target: HA of ca A/Hong Kong/213/03 (H5N1) (influenza A virus); remark: listed apart in the source
HA of virus H1-BS10 = biological target: HA of virus H1-BS10
[40] = biological target: HA of ca A/teal/Hong Kong/W312/97 (H6N1) (influenza A virus); remark: listed apart in the source
[41] = biological target: HA of A/Hong Kong/8/68 (H3N2) (influenza A virus); remark: listed apart in the source
[42] = biological target: HA of A/Victoria/361/11 (H3N2) (influenza A virus)
[43] = biological target: HA of ca A/Vietnam/1203/04 (H5N1) (influenza A virus); remark: listed apart in the source

B1: Antibody 5 (antibody, V domains shown)
VH: QVQLQQSGPGLVKPSQTLSLTCAISGDRVSSNSAVWNWIRQSPSRGLEWLGRTYYRSKWYYDYAESVKSRIVIDPDTSKNQVSLQLNSVTPEDSAIYYCARGGHITVFGLNIDAYDIWGQGAMVTVSS
VL: DIQMTQSPSSLSASVGDRVTISCRAQSLSSYLHWYQQKPGQPPKLLIYAATTLQSGVPSRFSGSGSGTDFTLTISTFQAEDVATYYCQQSRTFGQGTKVEIK
Neutralization IC50, H2-MO06 [1]: 2.38 µg/mL
Neutralization IC50, H7-NLD03 [2]: 4.14 µg/mL
Neutralization IC50, H3-Perth09 [3]: 2.22 µg/mL
Neutralization IC50, H1-NJ76 [4]: 1.64 µg/mL
Neutralization IC50, H1-BJ95 [5]: 5.06 µg/mL
Neutralization IC50, H3-Pa99 [6]: 16.7 µg/mL
Neutralization IC50, H7-BC04 [7]: 5.35 µg/mL
Neutralization IC50, H1-TX91 [8]: 0.76 µg/mL
Neutralization IC50, H1-FM47 [9]: 0.86 µg/mL
Neutralization IC50, H1-Ncal99 [10]: 0.85 µg/mL
Neutralization IC50, H9-HK97 [11]: 2.43 µg/mL
Neutralization IC50, H3-Wy03 [12]: 0.77 µg/mL
Neutralization IC50, H3-Syd97 [13]: 3.03 µg/mL
Neutralization IC50, H3-WI05 [14]: 2.83 µg/mL
Neutralization IC50, H1-Kaw86 [15]: 1.01 µg/mL
Neutralization IC50, H3-Vic75 [16]: 0.57 µg/mL
Neutralization IC50, H5-HK03 [17]: 1.18 µg/mL
Neutralization IC50, H6-HK97 [18]: 2.27 µg/mL
Neutralization IC50, H3-HK68 [19]: 0.39 µg/mL
Neutralization IC50, H5-VM04 [20]: 2.6 µg/mL

B2: Antibody 6 (antibody, V domains shown)
VH: B1 VH with V107E
VL: B1 VL
Neutralization IC50, H2-MO06 [1]: 2.9 µg/mL
Neutralization IC50, H7-NLD03 [2]: > 50 µg/mL
Neutralization IC50, H3-Perth09 [3]: 5.03 µg/mL
Neutralization IC50, H1-NJ76 [4]: 2.6 µg/mL
Neutralization IC50, H1-BJ95 [5]: 20.9 µg/mL
Neutralization IC50, H3-Pa99 [6]: 25.8 µg/mL
Neutralization IC50, H7-BC04 [7]: > 50 µg/mL
Neutralization IC50, H1-TX91 [8]: 2.2 µg/mL
Neutralization IC50, H1-FM47 [9]: 3.04 µg/mL
Neutralization IC50, H1-Ncal99 [10]: 3 µg/mL
Neutralization IC50, H9-HK97 [11]: 16.5 µg/mL
Neutralization IC50, H3-Wy03 [12]: 4.7 µg/mL
Neutralization IC50, H3-Syd97 [13]: 6.54 µg/mL
Neutralization IC50, H3-WI05 [14]: 6.76 µg/mL
Neutralization IC50, H1-Kaw86 [15]: 3.51 µg/mL
Neutralization IC50, H3-Vic75 [16]: 1.09 µg/mL
Neutralization IC50, H5-HK03 [17]: 10.4 µg/mL
Neutralization IC50, H6-HK97 [18]: 3.23 µg/mL
Neutralization IC50, H3-HK68 [19]: 2.04 µg/mL
Neutralization IC50, H5-VM04 [20]: 8.87 µg/mL

B3: Antibody 10 (antibody, V domains shown)
VH: QVQLQQSGPGLVKPSQTLSLTCAISGDSVSSNSATWNWIRQSPSRGLEWLGRTYYRSKWYNDYADFLKRRITINPDTSNNEVSLRLTSVTPDDTALYYCARGGHITVFGVNIDAFDVWGQGTMVTVSS
VL: DIQMTQSPSSLSASVGDRITISCRTSQSLRSYLHWYQQKPGKAPKLLIYASSTLQSGVPSRFSGSGSGTDFTLTISNLQPEDFATYYCQLSRTFGQGTKVEIK
Neutralization IC50, H2-MO06 [1]: 1.04 µg/mL
Neutralization IC50, H7-NLD03 [2]: 3.8 µg/mL
Neutralization IC50, H3-Perth09 [3]: 2.56 µg/mL
Neutralization IC50, H1-NJ76 [4]: 0.15 µg/mL
Neutralization IC50, H1-BJ95 [5]: 4.46 µg/mL
Neutralization IC50, H3-Pa99 [6]: 18.7 µg/mL
Neutralization IC50, H7-BC04 [7]: 3.59 µg/mL
Neutralization IC50, H1-TX91 [8]: 0.48 µg/mL
Neutralization IC50, H1-FM47 [9]: 1.11 µg/mL
Neutralization IC50, H1-Ncal99 [10]: 1.26 µg/mL
Neutralization IC50, H9-HK97 [11]: 1.76 µg/mL
Neutralization IC50, H3-Wy03 [12]: 1.52 µg/mL
Neutralization IC50, H3-Syd97 [13]: 9.29 µg/mL
Neutralization IC50, H3-WI05 [14]: 4.46 µg/mL
Neutralization IC50, H1-Kaw86 [15]: 1.62 µg/mL
Neutralization IC50, H3-Vic75 [16]: 0.91 µg/mL
Neutralization IC50, H5-HK03 [17]: 1.6 µg/mL
Neutralization IC50, H6-HK97 [18]: 1.05 µg/mL
Neutralization IC50, H3-HK68 [19]: 0.85 µg/mL
Neutralization IC50, H5-VM04 [20]: 2.21 µg/mL

B4: Antibody 15 (antibody, V domains shown)
VH: QVQLQQSGPGLVKPSQTLSLTCAISGDSVSSNNAVWNWIRQSPSRGLEWLGRTYYRSKWYNDYAESVKSRITINPDTSKNQFSLQLNSVTPEDTAVYYCARSGHITVFGVNVDAFDMWGQGTTVTVSS
VL: B3 VL with I19V, S22T, R30S, L33T, S51A, T53S, L54R, Q55G, N77S, L90Q
Neutralizing activity IC50, swine-origin A/Minnesota/11/2010 [21]: 0.9 µg/mL and 2.7 µg/mL
Neutralization IC50, H2-MO06 [22]: 0.83 µg/mL
Neutralization IC50, H7-NLD03 [23]: 1.3 µg/mL
Neutralization IC50, H3-Perth09 [24]: 0.5 µg/mL
Neutralization IC50, H1-NJ76 [25]: 0.25 µg/mL
Neutralization IC50, H1-BJ95 [26]: 1.81 µg/mL
Neutralization IC50, H3-Pa99 [27]: 3.39 µg/mL
Neutralization IC50, H7-BC04 [28]: 1.25 µg/mL
Neutralization IC50, H1-TX91 [29]: 0.13 µg/mL
Neutralization IC50, H1-FM47 [30]: 0.35 µg/mL
Neutralization IC50, H1-Ncal99 [31]: 0.79 µg/mL
Neutralization IC50, H9-HK97 [32]: 0.35 µg/mL
Neutralization IC50, H3-Syd97 [33]: 1.79 µg/mL
Neutralization IC50, H3-WI05 [34]: 1.3 µg/mL
Neutralization IC50, H2-JP57 [35]: 0.33 µg/mL
Neutralization IC50, H1-Kaw86 [36]: 0.48 µg/mL
Neutralization IC50, H3-Vic75 [37]: 0.35 µg/mL
Neutralization IC50, H6-AB85 [38]: 0.19 µg/mL
Neutralization IC50, H5-HK03 [39]: 0.05 µg/mL
Neutralization IC50, H1-BS10 (HA of virus H1-BS10): 1.89 µg/mL
Neutralization IC50, H6-HK97 [40]: 0.33 µg/mL
Neutralization IC50, H3-HK68 [41]: 0.5 µg/mL
Neutralization IC50, H3-VC11 [42]: 1.29 µg/mL
Neutralization IC50, H5-VM04 [43]: 0.28 µg/mL
